The results in this text go back to patent publication US12662524B2.

Residue numbers refer to the chain shown, from its start. In names and notes the source's numbering stands. Several values for one entry are separate records, joined by “and”; a condition that tells them apart may be missing. Identical values can stand only once.

B1: D2D3D4M4 (protein)
chain: CEVPTRLNSASLKQPYITQNYFPVGTVVEYECRPGYRREPSLSPKLTCLQNLKWSTAVEFCKKKSCPNPGEIRNGQIDVPGGILFGATISFSCNTGYKLFGSTSSFCLISGSSVQWSDPLPECREIYCPAPPQIDNGIIQGERDHYGYRQSVTYACNKGFTMIGEHSIYCTVNNDEGEWSGPPPECRGKSCRFPVVENGKQISGFGKKFYYKATVMFECDKGFYLDGSDTIVCDSNSTWDPPVPKCLKVL
B2: D2D3 (protein)
chain: CEVPTRLNSASLKQPYITQNYFPVGTVVEYECRPGYRREPSLSPKLTCLQNLKWSTAVEFCKKKSCPNPGEIRNGQIDVPGGILFGATISFSCNTGYKLFGSTSSFCLISGSSVQWSDPLPECREIY
B3: decay-accelerating factor (DAF; CD55) (protein)
chain: CGLPPDVPNAQPALEGRTSFPEDTVITYKCEESFVKIPGEKDSVICLKGSQWSDIEEFCNRSCEVPTRLNSASLKQPYITQNYFPVGTVVEYECRPGYRREPSLSPKLTCLQNLKWSTAVEFCKKKSCPNPGEIRNGQIDVPGGILFGATISFSCNTGYKLFGSTSSFCLISGSSVQWSDPLPECREIYCPAPPQIDNGIIQGERDHYGYRQSVTYACNKGFTMIGEHSIYCTVNNDEGEWSGPPPECRGKS
B4: D2M2-4 (protein)
chain: CEVPTRLNSASLKQPYITQNYFPVGTVVEYECRPGYRREPSLSPKLTCLQNLKWSTAVEFCKKKSCPYIRDPLNGQAVPANGTYEFGYQMHFICNEGYYLIGEEILYCELKGSVAIWSGKPPICEKVLCTPPPKIKNGKHTFSEVEVFEYLDAVTYSCDPAPGPDPFSLIGESTIYCGDNSVWSRAAPECKVVKCRFPVVENGKQISGFGKKFYYKATVMFECDKGFYLDGSDTIVCDSNSTWDPPVPKCLKVL
B5: D2M2-4 (ML) (protein)
chain: B4 chain with K62Y, K63R, K64E, S65T
B6: D2D3M3M4 (Multi-4) (protein)
chain: CEVPTRLNSASLKQPYITQNYFPVGTVVEYECRPGYRREPSLSPKLTCLQNLKWSTAVEFCKKKSCPNPGEIRNGQIDVPGGILFGATISFSCNTGYKLIGKTSSFCLISGSSVQWSDKLPICEKVLCTPPPKIKNGKHTFSEVEVFEYLDAVTYSCDPAPGPDPFSLIGESTIYCGDNSVWSRAAPECKVVKCRFPVVENGKQISGFGKKFYYKATVMFECDKGFYLDGSDTIVCDSNSTWDPPVPKCLKVL
B7: D2D3M3M4 (Multi-1) (protein)
chain: B6 chain with I100F, K102S, K119P
B8: D2D3M3M4 (K195Y) (protein)
chain: B6 chain with K98Y, I100F, K102S, K119P, I122E, E124R, K125E, V126I, L127Y
B9: D2D3M3M4 (T200Y) (protein)
chain: B6 chain with I100F, K102S, T103Y, K119P, I122E, E124R, K125E, V126I, L127Y
B10: D2D3M3M4 (F197I) (protein)
chain: B6 chain with K102S, K119P, I122E, E124R, K125E, V126I, L127Y
B11: D2D3M3M4 (Multi-5) or DCP (protein)
chain: B6 chain with K102S
B12: D2D3M3M4 (L205K) (protein)
chain: B6 chain with I100F, K102S, L108K, K119P, I122E, E124R, K125E, V126I, L127Y
B13: D2D3M3M4 (S199K) (protein)
chain: B6 chain with I100F, K119P, I122E, E124R, K125E, V126I, L127Y
B14: D2D3M3M4 (T192E) (protein)
chain: B6 chain with T95E, I100F, K102S, K119P, I122E, E124R, K125E, V126I, L127Y
B15: D2D3M3M4 (protein)
chain: B6 chain with I100F, K102S, K119P, I122E, E124R, K125E, V126I, L127Y
B16: D2D3M3M4 (P216K) (protein)
chain: B6 chain with I100F, K102S, I122E, E124R, K125E, V126I, L127Y
B17: membrane cofactor protein (MCP; CD46) (protein)
chain: CEEPPTFEAMELIGKPKPYYEIGERVDYKCKKGYFYIPPLATHTICDRNHTWLPVSDDACYRETCPYIRDPLNGQAVPANGTYEFGYQMHFICNEGYYLIGEEILYCELKGSVAIWSGKPPICEKVLCTPPPKIKNGKHTFSEVEVFEYLDAVTYSCDPAPGPDPFSLIGESTIYCGDNSVWSRAAPECKVVKCRFPVVENGKQISGFGKKFYYKATVMFECDKGFYLDGSDTIVCDSNSTWDPPVPKCLKVL
B18: D2M2-4 (I134A) (protein)
chain: B4 chain with I101A
B19: D2M2-4 (E136Q) (D2) (protein)
chain: B4 chain with E39Q
B20: D2M2-4 (L161K) (protein)
chain: B4 chain with L128K
B21: D2M2-4 (Y101N) (protein)
chain: B4 chain with Y68N
B22: D2M2-4 (Tetra) (protein)
chain: B4 chain with E39Q, Y68N, I101A, L128K

Sequence of C4b (Homo sapiens (Human)) (P0C0L4 757-1446 limits assumed, chain 1 of 2): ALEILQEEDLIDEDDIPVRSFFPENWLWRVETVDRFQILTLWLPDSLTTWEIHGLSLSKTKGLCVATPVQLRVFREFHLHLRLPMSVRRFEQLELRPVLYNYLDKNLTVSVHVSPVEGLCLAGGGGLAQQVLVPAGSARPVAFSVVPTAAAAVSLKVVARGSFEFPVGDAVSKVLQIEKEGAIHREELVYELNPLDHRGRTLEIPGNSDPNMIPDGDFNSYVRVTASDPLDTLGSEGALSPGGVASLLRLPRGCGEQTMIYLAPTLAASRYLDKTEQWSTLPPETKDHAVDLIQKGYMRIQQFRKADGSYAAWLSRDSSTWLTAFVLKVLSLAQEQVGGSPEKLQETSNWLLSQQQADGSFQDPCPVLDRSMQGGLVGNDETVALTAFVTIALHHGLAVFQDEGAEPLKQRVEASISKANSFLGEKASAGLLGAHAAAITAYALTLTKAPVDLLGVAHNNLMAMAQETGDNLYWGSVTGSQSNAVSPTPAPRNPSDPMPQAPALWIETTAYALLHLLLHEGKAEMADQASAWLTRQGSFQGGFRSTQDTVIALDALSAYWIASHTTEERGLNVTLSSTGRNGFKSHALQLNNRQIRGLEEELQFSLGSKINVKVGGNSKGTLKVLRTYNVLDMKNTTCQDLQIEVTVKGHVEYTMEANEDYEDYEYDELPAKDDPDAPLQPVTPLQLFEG
Sequence of C4b (Homo sapiens (Human)) (P0C0L4 20-675 limits assumed, chain 2 of 2): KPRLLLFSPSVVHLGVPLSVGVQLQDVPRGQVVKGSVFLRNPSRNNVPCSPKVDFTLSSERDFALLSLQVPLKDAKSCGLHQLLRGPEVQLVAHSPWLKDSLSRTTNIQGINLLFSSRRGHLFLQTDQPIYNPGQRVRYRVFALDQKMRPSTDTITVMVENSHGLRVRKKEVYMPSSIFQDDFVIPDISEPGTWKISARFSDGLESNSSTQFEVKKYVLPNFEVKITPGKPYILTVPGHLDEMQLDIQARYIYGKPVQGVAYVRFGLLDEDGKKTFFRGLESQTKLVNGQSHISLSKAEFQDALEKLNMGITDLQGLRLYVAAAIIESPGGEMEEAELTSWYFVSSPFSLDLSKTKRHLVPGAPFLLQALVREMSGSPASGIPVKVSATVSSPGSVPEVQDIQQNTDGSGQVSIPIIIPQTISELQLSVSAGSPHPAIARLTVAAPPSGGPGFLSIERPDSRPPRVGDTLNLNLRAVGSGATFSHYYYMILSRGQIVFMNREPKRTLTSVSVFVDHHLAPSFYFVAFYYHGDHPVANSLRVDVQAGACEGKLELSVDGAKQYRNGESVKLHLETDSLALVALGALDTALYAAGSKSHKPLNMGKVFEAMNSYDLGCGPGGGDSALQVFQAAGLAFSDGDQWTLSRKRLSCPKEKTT

For the first assay, the target named is AP C3-convertase (C3bBb) (Homo sapiens (Human)) (UniProt P01024).
For the molecule B1, the AP-DAA IC50 worked out at 5.6 nM.

Regarding B2, the AP-DAA IC50 was > 10 nM.

Consider B3, for which the AP-DAA IC50 was 1.1 nM and 2.3 nM.

B4: the AP-DAA IC50 is > 10 nM.

In the case of B5, the AP-DAA IC50 is > 10 nM.

For B6, the AP-DAA IC50 is > 10 nM.

In turn, B7 displayed an AP-DAA IC50 of 1.9 nM.

Take B8: the AP-DAA IC50 is > 10 nM.

As for B9, the AP-DAA IC50 came to 3.7 nM.

Regarding B10, the AP-DAA IC50 worked out at 4.4 nM.

In turn, B11 gave an AP-DAA IC50 of 2.4 nM.

In the case of B12, the AP-DAA IC50 is > 10 nM.

B13 displayed an AP-DAA IC50 of 6.6 nM.

Regarding B14, the AP-DAA IC50 is 2.3 nM.

For the molecule B15, the AP-DAA IC50 is 2.4 nM and 2.1 nM.

With B16, the AP-DAA IC50 is 3.4 nM.

Another assay has as its target C3b (Homo sapiens (Human)) (UniProt P01024).
Take B17: the C3b CFA: time (min.) for 50% cleavage of C3b α′-chain is 3.5 min and 2.1 min and 4.5 min.

Take B6: the C3b CFA: time (min.) for 50% cleavage of C3b α′-chain was 17.5 min.

Take B7: the C3b CFA: time (min.) for 50% cleavage of C3b α′-chain is 27.3 min.

B9 came in with a C3b CFA: time (min.) for 50% cleavage of C3b α′-chain of 103 min.

Turning to B10, the C3b CFA: time (min.) for 50% cleavage of C3b α′-chain worked out at 49.8 min.

In turn, B11 gave a C3b CFA: time (min.) for 50% cleavage of C3b α′-chain of 3.3 min.

B12 returned a C3b CFA: time (min.) for 50% cleavage of C3b α′-chain of 104 min.

The molecule B13 came in with a C3b CFA: time (min.) for 50% cleavage of C3b α′-chain of 18.9 min.

In turn, B14 displayed a C3b CFA: time (min.) for 50% cleavage of C3b α′-chain of 74.3 min.

For B15, the C3b CFA: time (min.) for 50% cleavage of C3b α′-chain is 80.7 min and 82.6 min.

As for B16, the C3b CFA: time (min.) for 50% cleavage of C3b α′-chain was found to be 30.1 min.

The next assay addresses C4b (Homo sapiens (Human)) (UniProt P0C0L4).
As to B17, the C4b CFA: time (min.) for 50% cleavage of C4b α-chain is 16.5 min and 12 min and 9.3 min.

Turning to B6, the C4b CFA: time (min.) for 50% cleavage of C4b α-chain stood at 5.5 min.

As for B7, the C4b CFA: time (min.) for 50% cleavage of C4b α-chain was determined as 443 min.

As for B8, the C4b CFA: time (min.) for 50% cleavage of C4b α-chain is > 540 min.

Consider B9, for which the C4b CFA: time (min.) for 50% cleavage of C4b α-chain came out at 513 min.

Take B10: the C4b CFA: time (min.) for 50% cleavage of C4b α-chain stood at 66.7 min.

For B11, the C4b CFA: time (min.) for 50% cleavage of C4b α-chain came out at 3.1 min.

As to B12, the C4b CFA: time (min.) for 50% cleavage of C4b α-chain worked out at 433 min.

Consider B13, for which the C4b CFA: time (min.) for 50% cleavage of C4b α-chain stood at 181 min.

Take B14: the C4b CFA: time (min.) for 50% cleavage of C4b α-chain turned out to be 268 min.

For the molecule B15, the C4b CFA: time (min.) for 50% cleavage of C4b α-chain is 429 min and 465 min.

As for B16, the C4b CFA: time (min.) for 50% cleavage of C4b α-chain worked out at 93 min.

In a further assay the target is AP C3-convertase (C3bBb) (Homo sapiens (Human)) (UniProt P01024). The source holds these as a separate data set.
On to B18, for which the AP-DAA worked out at 6.7 fold.

In the case of B19, the AP-DAA was 5.6 fold.

B20 yielded an AP-DAA of 3.4 fold.

In turn, B21 registered an AP-DAA of 7.2 fold.

Another assay shares this target. This is another data set of the same source.
Molecule B22 showed an AP-DAA of 12.5 fold.

Substrate in another assay: CP C3-convertase (C4b2a) (Homo sapiens (Human)) (UniProt P0C0L4)
With B1, the CP-DAA IC50 came to 5.7 nM.

For B2, the CP-DAA IC50 came out at 10.9 nM.

Turning to B3, the CP-DAA IC50 was 16.5 nM and 14.5 nM and 2.6 nM.

Regarding B4, the CP-DAA IC50 came out at 457 nM.

Take B5: the CP-DAA IC50 was > 1000 nM.

Turning to B6, the CP-DAA IC50 amounted to 39.3 nM.

For B7, the CP-DAA IC50 amounted to 22.6 nM.

For B8, the CP-DAA IC50 was > 100 nM.

Take B9: the CP-DAA IC50 stood at 17.7 nM.

Take B10: the CP-DAA IC50 worked out at 30.7 nM.

Take B11: the CP-DAA IC50 is 12.7 nM.

As to B12, the CP-DAA IC50 stood at 9.2 nM.

B13: the CP-DAA IC50 came out at 21.7 nM.

B14: the CP-DAA IC50 was 15.3 nM.

B15: the CP-DAA IC50 was 5.1 nM and 15.9 nM.

B16: the CP-DAA IC50 stood at 21 nM.

Substrate in the next assay: CP C3-convertase (C4b2a) (Homo sapiens (Human)) (UniProt P0C0L4)
This is another data set of the same source.
In the case of B18, the CP-DAA was determined as 2 fold.

B20: the CP-DAA turned out to be 2 fold.
